Measured values reported in US20240035010, “COMPOSITIONS COMPRISING A VARIANT POLYPEPTIDE AND USES THEREOF” (Arbor Biotechnologies, Inc., published 2024).

Legend:
[1] = target: T1, variant nuclease E154G combination (P14R, D32R, I61R, E311R, E154G); assay: cell_activity; PAM 5'-TTTA-3'; details: tags: pcDNA3.1 expression
T1 chain: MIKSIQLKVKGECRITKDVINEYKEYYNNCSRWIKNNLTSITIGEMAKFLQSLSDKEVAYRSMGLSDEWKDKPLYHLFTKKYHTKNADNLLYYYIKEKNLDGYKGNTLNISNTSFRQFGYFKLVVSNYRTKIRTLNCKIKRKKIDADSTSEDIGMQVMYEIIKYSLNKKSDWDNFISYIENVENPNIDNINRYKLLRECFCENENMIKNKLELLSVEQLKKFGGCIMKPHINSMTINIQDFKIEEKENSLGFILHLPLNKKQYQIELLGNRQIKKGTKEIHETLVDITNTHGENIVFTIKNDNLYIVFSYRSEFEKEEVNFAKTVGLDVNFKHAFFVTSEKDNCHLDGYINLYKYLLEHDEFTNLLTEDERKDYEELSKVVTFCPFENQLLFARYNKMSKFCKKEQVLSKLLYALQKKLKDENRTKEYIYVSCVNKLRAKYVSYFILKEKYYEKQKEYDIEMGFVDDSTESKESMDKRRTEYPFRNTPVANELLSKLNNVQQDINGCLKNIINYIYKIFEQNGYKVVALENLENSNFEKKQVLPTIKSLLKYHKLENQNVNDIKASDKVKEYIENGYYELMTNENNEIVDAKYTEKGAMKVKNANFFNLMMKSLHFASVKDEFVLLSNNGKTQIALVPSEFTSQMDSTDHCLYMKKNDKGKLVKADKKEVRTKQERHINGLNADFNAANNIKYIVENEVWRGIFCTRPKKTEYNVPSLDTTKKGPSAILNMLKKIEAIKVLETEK
In short: (§1)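 HEK293T cells were lipofected with nuclease plasmid (pcDNA3.1 backbone) plus RNA guide plasmid, with guide omitted in negative controls. After ~72 h cells were lysed in QuickExtract and % indels were derived from NGS reads, averaged over two bioreplicates and two technical replicates.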

[2] = target: T2, variant nuclease 7 substitutions D590G/E154G/E736G (P14R, D32R, I61R, E311R, D590G, E154G, E736G); assay: cell_activity; PAM 5'-TTTA-3'; details: tags: pcDNA3.1 expression
T2 chain: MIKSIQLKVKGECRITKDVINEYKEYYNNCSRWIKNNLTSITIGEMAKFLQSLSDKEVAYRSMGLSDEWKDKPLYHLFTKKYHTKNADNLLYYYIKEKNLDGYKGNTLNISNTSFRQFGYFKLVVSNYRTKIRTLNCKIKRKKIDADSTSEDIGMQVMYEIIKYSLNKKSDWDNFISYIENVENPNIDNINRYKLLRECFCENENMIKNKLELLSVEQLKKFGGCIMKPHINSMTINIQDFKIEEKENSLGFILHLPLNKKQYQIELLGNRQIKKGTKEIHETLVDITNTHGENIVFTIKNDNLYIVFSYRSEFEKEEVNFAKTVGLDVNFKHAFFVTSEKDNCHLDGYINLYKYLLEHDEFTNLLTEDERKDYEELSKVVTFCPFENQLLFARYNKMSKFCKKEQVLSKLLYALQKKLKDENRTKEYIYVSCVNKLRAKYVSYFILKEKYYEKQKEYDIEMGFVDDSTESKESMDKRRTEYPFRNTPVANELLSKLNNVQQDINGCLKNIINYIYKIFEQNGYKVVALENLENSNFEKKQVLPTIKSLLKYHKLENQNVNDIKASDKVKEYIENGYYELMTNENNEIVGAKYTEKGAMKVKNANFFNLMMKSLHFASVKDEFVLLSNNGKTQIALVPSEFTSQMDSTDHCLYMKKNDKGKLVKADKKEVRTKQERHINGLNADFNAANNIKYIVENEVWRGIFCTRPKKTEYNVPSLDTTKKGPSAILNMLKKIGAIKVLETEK
In short: as §1

B1: VEGFA crRNA ; VEGFA target (ssRNA ; dsDNA)
RNA: CUUGUUGUAUAUGUCCUUUUAUAGGUAUUAAACAACUCCAGACCACCAAUGGGCAC
DNA 1: TCCAGACCACCAATGGGCAC
DNA 2: GTGCCCATTGGTGGTCTGGA
indel activity [1]: 2.65 fold of WT
indel activity [2]: 3.13 fold of WT
